Test system: MS2 coat protein
Assay: apparent KD of MS2 coat protein; designed switch direction (-1 OFF switch, 1 ON switch): 1; higher = weaker reporter binding
Procedure, shortened: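 SNAP-549-labelled MS2 coat protein was titrated, doubling from 0.7 or 1.5 nM to 3 µM, over designed RNA switches transcribed on Illumina chips by stalled E. coli RNA polymerase. Runs were done without input, with 200 uM small-molecule ligand, or with an oligonucleotide input. Apparent KD is the per-design median over clusters of curve-fitted normalised fluorescence.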

[1] = Eterna round: R95, input ligand: FMN 200 uM
[2] = Eterna round: R95, input ligand: microRNA oligo, concentration not stated
[3] = Eterna round: R95, input ligand: none
[4] = input ligand: microRNA oligo, concentration not stated

| Sequence | apparent KD of MS2 coat protein [1] [nM] | apparent KD of MS2 coat protein [2] [nM] | apparent KD of MS2 coat protein [3] [nM] | apparent KD of MS2 coat protein (input ligand: FMN 200 uM) [nM] | apparent KD of MS2 coat protein [4] [nM] | apparent KD of MS2 coat protein (input ligand: none) [nM] |
| --- | --- | --- | --- | --- | --- | --- |
| AUAAGGCAAGCUUUUUUCUCGUAGUGUAAACAUGAGGAUCACCCAUGUGCCCACCCUGGAUCUUUGGAUCCCAGAAC [Sobeedbeon] (puzzle: Sensor for hsa-mir-208a) | 23 | 15.3 | 22.4 | – | – | – |
| AUAAGUUCGAUGCUCGUCUUUCCGUACAAACAUGAGGAUCACCCAUGUGAUCGGGAAGUAGCCCGAUCAGUAUGGCC [Leceen] (puzzle: Sensor for hsa-mir-208a) | 30.6 | 16.3 | 27.5 | – | – | – |
| AUAAUAAGGACAGGAUAUGGGAAAGGAAGUGUACUAGAAGGGUCGAGAAGACCAGAACAUGAGGAUCACCCAUGUGAUGGGAAA [PowerStrip SSNG 1.28] (Eterna round: R96, puzzle: Same State NG 1) | – | – | – | 21.7 | 23.3 | 36.1 |
| AUAAUAAUAAGUGAGGAUAUGUUGAUAAAGACAUGAGGAUCACCCAUGUGAAAUAAAAUAAUAAUACAGAAGGCACAAUAAUAAA [JMF's solution 2] (puzzle: Same State 2) | 25.6 | 38.7 | 27.9 | – | – | – |
| AUACAUGAGGAUCACCCAUGUAAUUAAUUAAUUAAUAAGAUCUAGGAUAUCAGCUCGUUUAGAGCUGAGAAGGAGAUCACAUGU [SSNG3/21-B3] (Eterna round: R96, puzzle: Same State NG 3) | – | – | – | – | 19.8 | – |
| AUACCAUCGGGAGGAUAUGGCACCUUAUUGGUGCCAGAAGGUCUAACAUGAGGAUCACCCAUGUGGGAGUGGUCUAAUGACCAC [Eli NG1ss - 87] (Eterna round: R96, puzzle: Same State NG 1) | – | – | – | 144 | 127 | 186 |
| AUACUCAUGUAAGGAUAUGCAGCCGAAACGGCUGCAGAAGGUACUAUAAUACAUGAGGAUCACCCAUGUCUCUAUUAUUUAGUU [Mat - Same State NG 1 - JL mod - D98] (Eterna round: R96, puzzle: Same State NG 1) | – | – | – | 89.5 | 46.5 | 101 |
| AUAGUUUCCGAAGGAUAUGAUGAGGAUCACCCAUCAGAAGGUUGGCUAUUGGGUGGACAUGAGGAUCACCCAUGUCUUUCUGUU (Eterna round: R96, puzzle: Same State NG 1) | – | – | – | 29.7 | 39.1 | 53.6 |
| AUCCUACAUGAGGAUCACCCAUGUGACGCCUCAAUAGGAUAUCGGGCCCACAGUCAGGAACGAGAAGGAUUGAAGC [Digerier] (puzzle: Same State 1) | 67.5 | 29.3 | 66.7 | – | – | – |
| AUGGUGCAGGUACAGGAUAUGUUGCUCGUAACAUGAGGAUCACCCAUGUACCUAUGAGAUUAAAUGCAGAAGGGUGCACACCAAA [Mat - Same State 2 - Mod of UCT - D90] (Eterna round: R96, puzzle: Same State 2) | – | – | – | 38.1 | 224 | 1350 |
| AUGGUGCAGGUACAGGAUAUGUUGCUCGUAACAUGAGGAUCACCCAUGUACCUAUGAGAUUAAAUGCAGAAGGGUGCACACCAAA [Mat - Same State 2 - Mod of UCT - D90] (puzzle: Same State 2) | 39.7 | 507 | 707 | – | – | – |
| AUUAAACAUGAGGAUCACCCAUGUCAUCAAAGUCGAGGAUAUGGGCAAAUAAAAUAAGAACCAGAAGGCGAAUAAU [salish99_ss1_r3_073] (puzzle: Same State 1) | 69.6 | 122 | 269 | – | – | – |
| AUUAAUAAUCUAGGAUAUCACGUCGUUUAGACGUGAGAAGGAGAUCAUAACAUGAGGAUCACCCAUGUAUUACAUGAAGUUAAU [SSNG1/7-B3] (Eterna round: R96, puzzle: Same State NG 1) | – | – | – | 22.2 | 27.8 | 37.5 |
| AUUAAUUAAUUAAUACAUGAGGAUCACCCAUGUAAUAAGAUCUAGGAUAUCAGCUCGAAUAGAGCUGAGAAGGAGAUCACAUGU [SSNG3/17-A1] (Eterna round: R96, puzzle: Same State NG 3) | – | – | – | – | 31.1 | – |
| AUUAAUUAAUUAAUACAUGAGGAUCACCCAUGUAAUAAGAUCUAGGAUAUCAGCUCGUUUAGAGCUGAGAAGGAGAUCACAUGU [SSNG3/17-A3] (Eterna round: R96, puzzle: Same State NG 3) | – | – | – | – | 32.7 | – |
| AUUAUUAAUAUAGGAUAUGUAAAACAUGAGGAUCACCCAUGUGAUAUCGUGAGUAAGGAGAGAGAACAGAAGGAUAAUUUUUUU [JMF's solution 1] (Eterna round: R96, puzzle: Same State NG 2) | – | – | – | 38.1 | 30.9 | 41.3 |
| AUUAUUAAUGCAGGAUAUGAUUAACAUGAGGAUCACCCAUGUGGUGUUGUGAGUAAGGAGAGUGAUCAGAAGGGCAUUUUUUGU [JMF's solution 16] (Eterna round: R96, puzzle: Same State NG 2) | – | – | – | 798 | 264 | 615 |
| AUUGCUAGCACAGGAUAUCAUGCGAAAAUUGCGUGAGAAGGGUGGACACUGUCAUUCACGGAGGACAUGAGGAUCACCCAUGUC [SameState NG1 #79] (Eterna round: R96, puzzle: Same State NG 1) | – | – | – | 77.1 | 59 | 74.9 |
| AUUGCUAGCGCAGGAUAUGAUGCGAAAAUUGCGUCAGAAGGGUGUAAUCUCUCAUUGCGGGAGGACAUGAGGAUCACCCAUGUC [SameState NG1 #84] (Eterna round: R96, puzzle: Same State NG 1) | – | – | – | – | 123 | – |
| AUUGCUUACGCAGGAUAUGAUGCGAAAAUUGCGUCAGAAGGGUGAAGUGACUCGUAGCAACAAGACAUGAGGAUCACCCAUGUC [SameState NG1 #93] (Eterna round: R96, puzzle: Same State NG 1) | – | – | – | 28.2 | 26.4 | 42.1 |
| AUUGGGUAACGAGGAUAUCGUAUUUGUUUGUUUCGAGAAGGCGUUAUAGUUUCUUUCUAUUGUUACAUGAGGAUCACCCAUGUU [JR_SSNG1_Sub052] (Eterna round: R96, puzzle: Same State NG 1) | – | – | – | 19.1 | 15 | 19.9 |
| AUUGUUUAUGCAGGAUAUGAUUAACAUGAGGAUCACCCAUGUGGUGUUGUGAGUAAGGAGAGUGAUCAGAAGGGCAUUUUUUUU [JMF's solution 69] (Eterna round: R96, puzzle: Same State NG 2) | – | – | – | 735 | 273 | 411 |
| AUUUAACAAGCUUUUUGCUCGUCUUAUAAACAUGAGGAUCACCCAUGUAAUAGCGUGAGAGUAAAUUAUUAAAUAAU [JMF 91] (puzzle: Sensor for hsa-mir-208a) | 13 | 39.9 | 11.9 | – | – | – |
| AUUUCUAAUGCAGGAUAUGAUUAACAUGAGGAUCACCCAUGUGGUGUUGUGAGUAAGGAGAGUGAUCAGAAGGGCAUUUUUUUU [JMF's solution 99] (Eterna round: R96, puzzle: Same State NG 2) | – | – | – | 915 | 428 | 579 |
| AUUUGCGCUAUAGGAUAUGGCAGGGUGAACCAGCCAGAAGGAUAAGUAGGGAGGUGACAUGAGGAUCACCCAUGUAAUAAGGAA [Eternabot solution 6] (Eterna round: R96, puzzle: Same State NG 1) | – | – | – | 330 | 290 | 378 |
| AUUUUAGUCAGAGGAUAUUGUUUAUCUCUAUUACAAGAAGGCUGAUCUUACUACCCACUUAUGAAACAUGAGGAUCACCCAUGU [JR_SSNG1_Sub016] (Eterna round: R96, puzzle: Same State NG 1) | – | – | – | 17.4 | 20.6 | 25.8 |
| AUUUUUAAUGCAGGAUAUGAUUAACAUGAGGAUCACCCAUGUGGUGUUGUGAGUAAGGAGAGUGAUCAGAAGGGCAUUUUUGUU [JMF's solution 85] (Eterna round: R96, puzzle: Same State NG 2) | – | – | – | 686 | 466 | 715 |
| CACAAUCUAUCUGAGGAUAUCAUGAAAAAAACAUGAGGAUCACCCAUGUGCAGGAAAACUGCAUAUGAGAAGGCAGAUAGAUUGU [salish99_SS2_r3_015] (Eterna round: R96, puzzle: Same State 2) | – | – | – | – | 514 | – |

From the supplement of paper PMC9170038
